The target in test [1] is T1, IL2Rb (UniProt P14784).
T1 sequence (looked up): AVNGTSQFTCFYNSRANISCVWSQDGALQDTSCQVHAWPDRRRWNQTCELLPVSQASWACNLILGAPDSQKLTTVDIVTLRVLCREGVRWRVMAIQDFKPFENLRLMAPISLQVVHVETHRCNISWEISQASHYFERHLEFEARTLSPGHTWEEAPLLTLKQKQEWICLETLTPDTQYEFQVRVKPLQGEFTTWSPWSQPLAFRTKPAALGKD
Kind of test: IP and ELISA; Cys mutant, no arm.

Test [2] addresses T2, IL2 receptor gamma (UniProt P31785).
T2 sequence (looked up): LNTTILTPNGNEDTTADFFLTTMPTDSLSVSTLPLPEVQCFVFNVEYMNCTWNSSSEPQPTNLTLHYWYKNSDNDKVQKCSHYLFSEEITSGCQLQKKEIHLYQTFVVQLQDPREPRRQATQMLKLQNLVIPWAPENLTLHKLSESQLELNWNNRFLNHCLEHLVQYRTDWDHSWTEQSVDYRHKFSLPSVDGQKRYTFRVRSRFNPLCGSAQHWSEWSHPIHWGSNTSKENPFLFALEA
Kind of test: IP and ELISA; S3 on the Cys. For orientation: An ELISA detects its analyte on a solid surface through an enzyme-linked reagent.

Regarding “IL2-Leu80Cys (from UniProt P60568 21-153) (ligand)”, in test [1], the binding activity after mutation, % of native IL2 worked out at 27%.

“IL2-Thr51Cys (from UniProt P60568 21-153) (ligand)” returned a binding activity after conjugating to S3, % of native IL2 in test [2] of 89.7%.

These data come from patent publication US20230158141A1.
